The values below come from paper PMC4877809.

The target in the test is CotB3 (class I P450 hydroxylase of the cyclooctatin pathway) (Streptomyces melanosporofaciens MI614-43F2) (UniProt C9K1X6).
UniProt C9K1X6, sequence (C9K1X6 whole entry): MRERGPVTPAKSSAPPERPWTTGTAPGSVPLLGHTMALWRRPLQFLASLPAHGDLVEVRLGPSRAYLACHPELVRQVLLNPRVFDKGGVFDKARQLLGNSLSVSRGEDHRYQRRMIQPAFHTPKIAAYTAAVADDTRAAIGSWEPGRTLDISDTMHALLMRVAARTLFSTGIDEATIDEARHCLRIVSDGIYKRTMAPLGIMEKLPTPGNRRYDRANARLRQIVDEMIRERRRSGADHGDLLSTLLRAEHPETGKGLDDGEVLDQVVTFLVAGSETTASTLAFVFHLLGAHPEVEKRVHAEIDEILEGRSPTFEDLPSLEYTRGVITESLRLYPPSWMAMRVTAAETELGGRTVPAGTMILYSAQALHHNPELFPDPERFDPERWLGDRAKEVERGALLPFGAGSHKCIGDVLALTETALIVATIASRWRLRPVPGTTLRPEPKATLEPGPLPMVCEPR

With “Pdx-W106E (putidaredoxin, ferredoxin of the Pseudomonas putida PdR·Pdx redox system, W106E mutant) (natural protein)”, the whole cell catalysis in E. coli (CotB3 with PdR/Pdx-W106E): formation of cyclooctat-9-en-5,7-diol from added cyclooctat-9-en-7-ol, GC-MS was 100%.
